In patent US20240190962A1:

Molecular target: human IL-2 receptor (IL-2Rα, IL-2Rβ, IL-2Rγ) (human) (UniProt P01589)
Assay: cell-based or functional assay

human IL-2 receptor (IL-2Rα, IL-2Rβ, IL-2Rγ) (human), sequence (P01589 22-272, chain 1 of 3): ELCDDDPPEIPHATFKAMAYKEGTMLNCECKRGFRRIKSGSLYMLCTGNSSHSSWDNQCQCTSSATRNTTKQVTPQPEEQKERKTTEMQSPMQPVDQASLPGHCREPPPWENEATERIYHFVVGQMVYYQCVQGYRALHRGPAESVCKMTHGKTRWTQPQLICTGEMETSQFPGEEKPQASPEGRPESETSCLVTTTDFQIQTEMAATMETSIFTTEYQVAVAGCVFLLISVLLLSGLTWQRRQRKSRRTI
human IL-2 receptor (IL-2Rα, IL-2Rβ, IL-2Rγ) (human), sequence (P14784 27-551, chain 2 of 3, further chain): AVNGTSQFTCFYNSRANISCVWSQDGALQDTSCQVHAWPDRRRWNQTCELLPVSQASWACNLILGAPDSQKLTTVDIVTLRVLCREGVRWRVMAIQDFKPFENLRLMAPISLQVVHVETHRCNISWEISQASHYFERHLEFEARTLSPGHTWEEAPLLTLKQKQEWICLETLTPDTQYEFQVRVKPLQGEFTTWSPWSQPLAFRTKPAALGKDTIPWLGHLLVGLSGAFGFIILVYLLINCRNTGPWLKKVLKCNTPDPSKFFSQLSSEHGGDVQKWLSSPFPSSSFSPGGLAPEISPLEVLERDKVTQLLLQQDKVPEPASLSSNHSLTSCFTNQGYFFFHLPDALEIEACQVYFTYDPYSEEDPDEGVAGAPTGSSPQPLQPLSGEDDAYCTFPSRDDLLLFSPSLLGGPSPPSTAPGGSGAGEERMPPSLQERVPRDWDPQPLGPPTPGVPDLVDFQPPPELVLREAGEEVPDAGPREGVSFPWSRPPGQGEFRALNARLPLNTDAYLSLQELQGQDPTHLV
human IL-2 receptor (IL-2Rα, IL-2Rβ, IL-2Rγ) (human), sequence (P31785 23-369, chain 3 of 3, further chain): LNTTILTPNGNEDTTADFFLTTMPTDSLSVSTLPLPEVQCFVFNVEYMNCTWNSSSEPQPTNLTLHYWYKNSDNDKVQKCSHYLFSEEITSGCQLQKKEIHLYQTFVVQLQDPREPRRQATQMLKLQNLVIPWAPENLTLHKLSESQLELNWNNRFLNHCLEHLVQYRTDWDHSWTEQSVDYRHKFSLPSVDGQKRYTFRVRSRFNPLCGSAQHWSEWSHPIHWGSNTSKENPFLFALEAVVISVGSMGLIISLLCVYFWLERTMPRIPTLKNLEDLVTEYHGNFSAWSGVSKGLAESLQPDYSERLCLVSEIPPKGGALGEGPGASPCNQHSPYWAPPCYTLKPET

Percent T-cell proliferation (PBMC proliferation assay): 52%
B1: Fab-Fc-IL-2 mutant-CD3 Ab (protein, part only; not given: constant regions and IL-2 junction, not shown: a dimerising Fc or GST)
light: EIVMTQSPGTLSLSPGESATLSCSASLSVSFMHWFQQKPGHAPRLLIYRTSNLASGVPDRFSGSGSGTDFTLTISRLEPEDFAVYYCQQRSSDPPTFGQGTRLEIKRTVAAPSVFIFPPSDEQLKSGTASVVCLLNNFYPREAKVQWKVDNALQSGNSQESVTEQDSKDSTYSLSSTLTLSKADYEKHKVYACEVTHQGLSSPVTKSFNRGEC
heavy, part 1: EVQLVESGGGLVQPGRSLRLSCTASGFTFSYFWMNWVRQAPGKGLEWVGEIRLRSDNYATHYAESVKGRFTISRDDSKSIAYLQMNSLKTEDTALYYCTRDWEFTYWGQGTTVTVSSAS
heavy, part 2: EVQLVESGGGLVQPGRSLRLSCTASGFTFSYFWMNWVRQAPGKGLEWVGEIRLRSDNYATHYAESVKGRFTISRDDSKSIAYLQMNSLKTEDTALYYCTRDWEFTYWGQGTTVTVSSASAPTSSSTKKTQLQLEHLLLDLQMILNGINNYKNPKLTDMLTFEFYMPKKATELKHLQCLERELKPLEEVLNLAQSKNFHLRPRDLISNINVIVLELKGSETTFMCEYADETATIVEFLNRWITFCQSIISTLT
